Ends that are not written are not given here.
B1: …-biotin (SEQ ID NO: 30) (peptide)
peptide: TFKDAIGGGSK-biotin
B2: …-biotin (SEQ ID NO: 31) (peptide)
peptide: TFKDEAGGGSK-biotin
B3: …-biotin (SEQ ID NO: 25) (peptide)
peptide: TFKDEIGGGSK-biotin
B4: …-biotin (SEQ ID NO: 37) (peptide)
peptide: TFQDEIGGGSK-biotin
B5: …-biotin (SEQ ID NO: 36) (peptide)
peptide: THKDEIGGGSK-biotin
B6: AVR1674 (LFG2 3F3:3H9:2C10:4B10) (antibody, V domains shown)
VH: EVQLQVSGAELVKPGASVRLSCKASGYTFTSYYIYWVKQRPGQGLEWIGDINPSDGDTDFNEKFKSKATLTVDKSSSTAYMQLSSLTSEDSAVYYCTRSRGGFAYWGQGTLVTVSA
VL: SHGDQASISSRSSQSIVHSNGNTYLEWYLQKPAQSPKLLIFKVSNRFSGVPDRFSRSGSGTDFTLKISRVEAEDLGIYYCSQGSHVPWTFGGGTKL

Biological target: AVR1674 (LFG2 3F3:3H9:2C10:4B10)
Assay: biolayer interferometry (Octet), biotinylated peptide on streptavidin tips, LFG2:4B10 mAb in solution, 1:1 Langmuir fit

Binder | Kd
B1 | 24.5 nM
B2 | 16.4 nM
B3 | 13.9 nM
B4 | 34.4 nM
B5 | 60 nM

Biological target: AVR1674 (LFG2 3F3:3H9:2C10:4B10)
Assay: biolayer interferometry (Octet), biotinylated peptide on streptavidin tips, LFG2:4B10 mAb at 500 nM

Binder | Response R
B1 | 1.01 nm
B2 | 5.29 nm
B3 | 4.84 nm
B4 | 1.34 nm
B5 | 2.37 nm

Biological target: Bacillus anthracis lethal factor (recombinant LF) (Bacillus anthracis) (UniProt P15917)
Assay: immunoblot of denatured recombinant LF

Sequence of UniProt P15917 (P15917 34-809 limits assumed): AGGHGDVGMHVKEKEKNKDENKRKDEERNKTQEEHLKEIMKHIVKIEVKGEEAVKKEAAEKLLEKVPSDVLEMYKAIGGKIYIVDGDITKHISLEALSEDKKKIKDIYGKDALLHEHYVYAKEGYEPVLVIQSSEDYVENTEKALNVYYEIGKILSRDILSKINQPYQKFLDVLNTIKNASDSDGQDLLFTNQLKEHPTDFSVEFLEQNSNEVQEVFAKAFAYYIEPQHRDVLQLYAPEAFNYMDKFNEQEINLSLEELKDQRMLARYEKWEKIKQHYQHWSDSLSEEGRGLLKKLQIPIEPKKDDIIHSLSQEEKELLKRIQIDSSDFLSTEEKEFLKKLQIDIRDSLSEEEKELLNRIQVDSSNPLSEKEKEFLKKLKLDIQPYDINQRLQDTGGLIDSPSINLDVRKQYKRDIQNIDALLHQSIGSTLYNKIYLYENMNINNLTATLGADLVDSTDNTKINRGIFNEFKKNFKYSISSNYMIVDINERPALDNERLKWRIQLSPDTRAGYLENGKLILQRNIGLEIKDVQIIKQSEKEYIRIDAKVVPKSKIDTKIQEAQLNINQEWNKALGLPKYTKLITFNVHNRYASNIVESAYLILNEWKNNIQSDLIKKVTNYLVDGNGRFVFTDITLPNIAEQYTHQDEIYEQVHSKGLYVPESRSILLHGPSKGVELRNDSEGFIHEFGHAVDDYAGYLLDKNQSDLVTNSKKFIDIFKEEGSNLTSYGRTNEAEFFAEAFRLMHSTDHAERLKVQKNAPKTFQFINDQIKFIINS

Binder | amount of LF detected by immunoblot
B6 | < 30 ng

Biological target: AVR1674 (LFG2 3F3:3H9:2C10:4B10)
Assay: biolayer interferometry (Octet), follow-up experiment, 4-point titration of mAb LFG2 against the peptide

Binder | Kd
B3 | 9.97 nM

Reference: patent publication US20160272698A1
